In patent publication US20250368742A1 (D2M BIOTHERAPEUTICS, published 2025):

What was measured:
human MICA004 on cells = molecular target: T1, human MICA004 on cells (human); assay: flow cytometry, CHO-MICA004 cells
T1 construct: whole, on cells; also called CHO-MICA004; C1R-MICA004

human MICA008 on cells = molecular target: T2, human MICA008 on cells (human); assay: flow cytometry, CHO-MICA008 cells
T2 construct: whole, on cells; also called CHO-MICA008; C1R-MICA008
T2 sequence (Q29983 whole entry): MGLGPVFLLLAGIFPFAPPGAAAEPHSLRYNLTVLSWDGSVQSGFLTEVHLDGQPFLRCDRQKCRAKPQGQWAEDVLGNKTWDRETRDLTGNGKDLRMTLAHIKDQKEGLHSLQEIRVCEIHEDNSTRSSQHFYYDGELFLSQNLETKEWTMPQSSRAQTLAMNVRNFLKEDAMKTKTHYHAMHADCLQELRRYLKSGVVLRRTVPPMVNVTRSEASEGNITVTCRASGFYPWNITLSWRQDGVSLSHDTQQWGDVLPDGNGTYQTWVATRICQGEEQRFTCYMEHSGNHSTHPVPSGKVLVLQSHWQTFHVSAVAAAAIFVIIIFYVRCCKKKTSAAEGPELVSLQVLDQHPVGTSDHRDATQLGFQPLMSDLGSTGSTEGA

T1 sequence (Q29983 whole entry): as above

B1: 1D5 (antibody, human IgG1, kappa, V domains shown)
VH: EIQLQQSGPELVKPGASVKVSCKASGYAFTSQNIYWVKQSHGKSLEWIGYIEPYNVVPMYNPKFKGKATLTVDKSSSSAYIHLNSLTSEDSAIYYCARSGSSNFDYWGQGTTLTVSS
VL: EIILTQSPTTMAASPGEKITITCSASSSISSHYLHWYQQKSGFSPKLLIYRTSNLASGVPARFSGSGSGTSYSLTIGTMEAEDVATYYCQQGSSLPLTFGAGTKVEIKR
notes: also called ID5
What does the source list for B1?
EC50 (human MICA004 on cells): 0.051 mg/L; EC50 (human MICA008 on cells): 0.04 mg/L
